Measurements reported in patent US20120321699A1 (published 2012).

Molecular target: HV00044 (6240 TZ5 140C) (HIV-1)
Test: SPR

B1: CH01 (antibody, V domains shown)
VH: EVQLVESGANVVRPGGSLRLSCKASGFIFENFGFSWVRQAPGKGLQWVAGLNWNGGDTRYADSVKGRFRMSRDNSRNFVYLDMDKVGVDDTAFYYCARGTDYTIDDAGIHYQGSGTFWYFDLWGRGTLVSVSS
VL: EIVLTQSPGTLSLSPGERATLSCRASHNVHPKYFAWYQQKPGQSPRLLIYGGSTRAAGIPGKFSGSGSGTDFTLTISRVDPEDFAVYYCQQYGGSPYTFGQGTKVEI
Kd: 300 nM
